The record followed here is the supplement of paper PMC10567573.

Sequences and labels used below:
B1: ANKRD44 (parent)
chain: FHCIETLVTTGANVNETDDWGRTA
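Also: lentivirally expressed fusions sorted by FACS into six bins by GFP to DsRed ratio, PSI derived from sequencing read proportions per bin multiplied by bin number.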

Variants of B1 are the subject of this series. The series can be described thus: protein stability index of a GFP-peptide fusion (GPS, HEK-293T) (PSI 1-6); higher = more stable. The conditions noted are these: c terminus: a fixed tail appended.
With FHCIETLVTTGANVPETDDWGRTA, the protein stability index worked out at 2.34.
FHCIETLVTTGANVCETDDWGRTA: the protein stability index was found to be 1.9.
Consider FHCIETLVTTGANVGETDDWGRTA, for which the protein stability index is 1.85.
Consider FHCIETLVTTGANVKETDDWGRTA, for which the protein stability index was determined as 2.44.
With FHCIETLVTTGANVEETDDWGRTA, the protein stability index was found to be 2.13.
With FHCIETLVTTGANVWETDDWGRTA, the protein stability index was 2.14.
FHCIETLVTTGANVTETDDWGRTA: the protein stability index was 3.27.
Consider FHCIETLVTTGANVRETDDWGRTA, for which the protein stability index turned out to be 2.01.
For FHCIETLVTTGANVIETDDWGRTA, the protein stability index amounted to 1.54.
Take FHCIETLVTTGSNVNETDDWGRTA: the protein stability index stood at 2.73.
As for FHCIETLVTTGRNVNETDDWGRTA, the protein stability index was 2.33.
The value for FHCIETLVTTGANVNETDDWGRTY was 1.78; that for FHCIETLVTTGANVNETDDWGRTV was 2.01.
For FHCIETLVTTGANVNETDDWGRTN, the protein stability index turned out to be 2.03.
Take FHCIETLVTTGANVNETDDWGRTE: the protein stability index turned out to be 2.27.
Consider FHCWETLVTTGANVNETDDWGRTA, for which the protein stability index was determined as 3.86.
Consider FHCPETLVTTGANVNETDDWGRTA, for which the protein stability index stood at 2.19.
With FHCHETLVTTGANVNETDDWGRTA, the protein stability index was 2.15.
On to FHCGETLVTTGANVNETDDWGRTA, for which the protein stability index is 2.66.
As for FHCQETLVTTGANVNETDDWGRTA, the protein stability index stood at 2.
On to FHCIETLVTTGANVNETDDWMRTA, for which the protein stability index is 2.04.
The figure for FHCIETLVTTGANVNETDDWFRTA is 1.87; for FHCIETLVTTGANVNETDDWERTA it is 2.33.
Regarding FHCIETLVTTGANVNETDDWYRTA, the protein stability index worked out at 1.92.
Take FHCIETLVTTRANVNETDDWGRTA: the protein stability index came to 2.6.
Take FHCIETLVTTLANVNETDDWGRTA: the protein stability index stood at 2.44.
Consider FHCIETLVTTNANVNETDDWGRTA, for which the protein stability index was found to be 2.
For FHCIETLVTTVANVNETDDWGRTA, the protein stability index was 2.09.
Turning to FHCIETLVTTYANVNETDDWGRTA, the protein stability index amounted to 2.39.
The value for FHCIETLVTTQANVNETDDWGRTA was 1.74.
As to FHCIETLVTTFANVNETDDWGRTA, the protein stability index stood at 1.47.
For the variant FHCIETLETTGANVNETDDWGRTA, the protein stability index was found to be 3.35.
Regarding FHCIETLYTTGANVNETDDWGRTA, the protein stability index turned out to be 2.27.
As to FHCIETLITTGANVNETDDWGRTA, the protein stability index is 1.8.
Consider FHCIETLSTTGANVNETDDWGRTA, for which the protein stability index came to 3.12.
For FHCIETLVTTGAFVNETDDWGRTA, the protein stability index worked out at 3.16.
With FHCIETLVTTGADVNETDDWGRTA, the protein stability index worked out at 2.51.
Turning to FHCIETLVTTGARVNETDDWGRTA, the protein stability index turned out to be 2.1.
The figure for FHCIETLVTTGAIVNETDDWGRTA is 2.31; for FHCIETLVTTGANVNETPDWGRTA it is 1.71.
As for FHCIETLVTTGANVNETTDWGRTA, the protein stability index was 1.85.
Turning to FHCIETLVTTGANVNETCDWGRTA, the protein stability index is 2.14.
For FHCIETLVTTGANVNETADWGRTA, the protein stability index stood at 2.07.
The value for FHCIETLVTTGANVNETKDWGRTA was 1.65; that for FHCIETLVTTGANVNETMDWGRTA was 1.64.
For the variant FHCIETRVTTGANVNETDDWGRTA, the protein stability index stood at 2.66.
For the variant FHCIETPVTTGANVNETDDWGRTA, the protein stability index worked out at 3.04.
Turning to FHCIETQVTTGANVNETDDWGRTA, the protein stability index was found to be 2.49.
Turning to FHCIETEVTTGANVNETDDWGRTA, the protein stability index was found to be 3.82.
In the case of FHCIETNVTTGANVNETDDWGRTA, the protein stability index came out at 3.08.
Turning to FHCIETLVTTGANVNHTDDWGRTA, the protein stability index was found to be 2.32.
For FHCIETLVTTGANVNSTDDWGRTA, the protein stability index is 1.78.
As to FHCIETLVTTGANVNPTDDWGRTA, the protein stability index was 2.
Regarding FHCIETLVTTGANVNGTDDWGRTA, the protein stability index amounted to 1.79.
For FHCIETLVTTGANVNITDDWGRTA, the protein stability index was found to be 1.52.
With FHCIETLVTTGANANETDDWGRTA, the protein stability index is 2.2.
Turning to FHCIETLVTTGANENETDDWGRTA, the protein stability index came out at 3.04.
For the variant FHCIETLVTTGANSNETDDWGRTA, the protein stability index was determined as 2.41.
The figure for FHCIETLVTTGANDNETDDWGRTA is 2.26.
Turning to FHCIETLVTTGANWNETDDWGRTA, the protein stability index came out at 1.54.
In the case of FHCIEMLVTTGANVNETDDWGRTA, the protein stability index amounted to 2.18.
In the case of FHCIEELVTTGANVNETDDWGRTA, the protein stability index was 2.69.
FHCIEHLVTTGANVNETDDWGRTA: the protein stability index amounted to 2.52.
Regarding FHCIEYLVTTGANVNETDDWGRTA, the protein stability index came to 3.59.
The figure for FHCIEPLVTTGANVNETDDWGRTA is 2.08; for FHEIETLVTTGANVNETDDWGRTA it is 3.96; for FHAIETLVTTGANVNETDDWGRTA it is 1.79.
The value for FHNIETLVTTGANVNETDDWGRTA was 2.21; that for FHMIETLVTTGANVNETDDWGRTA was 2.31.
Take FHVIETLVTTGANVNETDDWGRTA: the protein stability index was 2.62.
Regarding FHCIETLVTTGANVNETDDWGRAA, the protein stability index was 2.27.
On to FHCIETLVTTGANVNETDDWGRDA, for which the protein stability index was found to be 2.71.
On to FHCIETLVTTGANVNETDDWGRYA, for which the protein stability index was 1.83.
The value for FHCIETLVTTGANVNETDDWGRKA was 2.26; that for FHCIETLVTEGANVNETDDWGRTA was 2.37; that for FHCIETLVTKGANVNETDDWGRTA was 2.24.
For FHCIETLVTGGANVNETDDWGRTA, the protein stability index worked out at 1.92.
Consider FHCIETLVTNGANVNETDDWGRTA, for which the protein stability index was found to be 2.66.
The figure for FHCIETLVTYGANVNETDDWGRTA is 2.14; for FHCIETLVTIGANVNETDDWGRTA it is 1.7; for FTCIETLVTTGANVNETDDWGRTA it is 3.08.
With FKCIETLVTTGANVNETDDWGRTA, the protein stability index was 3.34.
The figure for FHCIETLVTTGANVNETDDWGHTA is 1.98; for FHCIETLVTTGANVNETDDWGYTA it is 1.95.
For FHCIETLVTTGANVNETDDWGMTA, the protein stability index turned out to be 2.27.
Turning to FHCIETLVTTGANVNETDDWGITA, the protein stability index is 1.9.
In the case of FHCIETLVTTGANVNETDDWGCTA, the protein stability index is 1.76.
For FHCIETLVTTGANVNETDDWGNTA, the protein stability index worked out at 2.35.
As to FHCIKTLVTTGANVNETDDWGRTA, the protein stability index stood at 2.14.
Consider FHCIYTLVTTGANVNETDDWGRTA, for which the protein stability index amounted to 3.36.
The figure for FHCIDTLVTTGANVNETDDWGRTA is 2.23; for FHCIITLVTTGANVNETDDWGRTA it is 2.98; for FHCIETLVTTGANVNERDDWGRTA it is 1.71.
Turning to FHCIETLVTTGANVNEYDDWGRTA, the protein stability index amounted to 1.9.
